Source: publication PMC6546751

Biological target: FITC-casein (fluorescein-labeled casein, Sigma #C0528) (bovine)
Assay: not stated; apparent Kd of ClpB for casein in the presence of ATPγS (Supplementary Fig. 1d); method not given

Kd [nM]	Substance
110	Escherichia coli ClpB K476C hyperactive middle-domain variant (from UniProt P63284 1-857) (enzyme)
130	Escherichia coli ClpB, wild type (from UniProt P63284 1-857) (enzyme)
